According to paper PMC5741831, “Structural determinants for protein unfolding and translocation by the Hsp104 protein disaggregase” (Bioscience Reports, 2017):

Biological target: the molecule itself
Test: crystal structure; orthorhombic crystal form, 2.6 Å, nucleotide-free, three copies in the asymmetric unit; contacts between NCS-related neighbouring molecules in the crystal, not the hexameric ring

B1: Hsp104_(1-360) (domain or fragment, S. cerevisiae, UniProt P31539 1-360, looked up)
chain: MNDQTQFTERALTILTLAQKLASDHQHPQLQPIHILAAFIETPEDGSVPYLQNLIEKGRYDYDLFKKVVNRNLVRIPQQQPAPAEITPSYALGKVLQDAAKIQKQQKDSFIAQDHILFALFNDSSIQQIFKEAQVDIEAIKQQALELRGNTRIDSRGADTNTPLEYLSKYAIDMTEQARQGKLDPVIGREEEIRSTIRVLARRIKSNPCLIGEPGIGKTAIIEGVAQRIIDDDVPTILQGAKLFSLDLAALTAGAKYKGDFEERFKGVLKEIEESKTLIVLFIDEIHMLMGNGKDDAANILKPALSRGQLKVIGATTNNEYRSIVEKDGAFERRFQKIEVAEPSVRQTVAILRGLQPKYE
notes: Hsp104, S. cerevisiae, residues 1-360: N domain (4-164), AAA-1 large domain (165-341) and first helix of the AAA-1 small domain (345-356); three independent copies in the crystallographic asymmetric unit; nucleotide-free; also called N-terminal fragment of S. cerevisiae Hsp104; mol 1; source: E. coli BL21-CodonPlus (DE3)-RIL, purified (Ni-NTA, anion exchange, Mono-S); not shown: His6, N-terminal, …
  binding result: binds
